Here are results for one molecule from US20180073027, “CD117 Ligand-Drug Conjugates For Targeted Cancer Therapy” (THE METHODIST HOSPITAL SYSTEM, published 2018).

The target of the data set is CD117 (KIT, c-Kit) (UniProt P10721 P10721:26-976). Briefly: flow; HEL cells, room temperature 30 min; no binding to CD117-negative CA46, U937, MDA-MB-468, LNCaP cells. Particulars: tags: endogenous on HEL AML cell line (ATCC) or primary AML marrow cells; label: 5'-Cy3; G4.
CD117 (KIT, c-Kit), sequence (P10721 26-976, one chain of several): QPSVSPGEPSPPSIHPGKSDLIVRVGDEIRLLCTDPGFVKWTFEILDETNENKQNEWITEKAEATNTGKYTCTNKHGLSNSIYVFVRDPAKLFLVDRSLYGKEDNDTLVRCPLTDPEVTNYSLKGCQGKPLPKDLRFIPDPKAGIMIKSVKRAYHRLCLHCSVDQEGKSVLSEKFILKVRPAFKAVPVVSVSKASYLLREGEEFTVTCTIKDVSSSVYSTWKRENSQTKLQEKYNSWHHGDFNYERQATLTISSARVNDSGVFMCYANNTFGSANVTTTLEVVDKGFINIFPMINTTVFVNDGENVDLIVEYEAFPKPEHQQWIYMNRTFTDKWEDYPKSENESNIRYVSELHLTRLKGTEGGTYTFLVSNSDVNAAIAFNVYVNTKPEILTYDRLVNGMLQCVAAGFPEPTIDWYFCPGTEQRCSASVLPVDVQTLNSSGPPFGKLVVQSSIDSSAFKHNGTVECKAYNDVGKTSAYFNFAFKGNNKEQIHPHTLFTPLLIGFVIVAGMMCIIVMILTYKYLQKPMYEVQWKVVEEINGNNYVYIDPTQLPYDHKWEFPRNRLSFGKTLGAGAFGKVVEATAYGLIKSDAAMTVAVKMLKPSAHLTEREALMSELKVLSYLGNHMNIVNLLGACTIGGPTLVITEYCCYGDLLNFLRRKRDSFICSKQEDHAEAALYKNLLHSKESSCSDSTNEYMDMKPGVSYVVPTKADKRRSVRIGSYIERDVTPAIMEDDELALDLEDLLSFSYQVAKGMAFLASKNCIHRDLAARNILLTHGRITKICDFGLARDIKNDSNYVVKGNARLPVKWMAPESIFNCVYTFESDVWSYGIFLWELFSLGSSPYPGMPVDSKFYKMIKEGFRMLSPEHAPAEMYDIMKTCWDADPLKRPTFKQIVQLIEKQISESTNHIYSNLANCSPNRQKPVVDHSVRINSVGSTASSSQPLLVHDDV

B1: CD117 aptamer #1F (full length) (ssDNA)
DNA: GAGGCATACCAGCTTATTCAAGGGGCCGGGGCAAGGGGGGGGTACCGTGGTAGGACATAGTAAGTGCAATCTGCGAA
A word on the Kd: it is a measure of binding affinity in units of concentration. As for B1, the dissociation constant Kd amounted to 6.3 nM.
